Substrate: CCCCCCCCCCCCCCCC(=O)Oc1ccc([N+](=O)[O-])cc1
Assay: purified protein
Format: biochemical, Yarrowia lipolytica
Details: 50 mmol PBS, pH 8.0, 40°C, substrate 0.2–1 mmol

B1: YLLip2 (lipase2 from Yarrowia lipolytica) (Yarrowia lipolytica) (protein)
chain: VYTSTETSHIDQESYNFFEKYARLANIGYCVGPGTKIFKPFNCGLQCAHFPNVELIEEFHDPRLIFDVSGYLAVDHASKQIYLVIRGTHSLEDVITDIRIMQAPLTNFDLAANISSTATCDDCLVHNGFIQSYNNTYNQIGPKLDSVIEQYPDYQIAVTGHSLGGAAALLFGINLKVNGHDPLVVTLGQPIVGNAGFANWVDKLFFGQENPDVSKVSKDRKLYRITHRGDIVPQVPFWDGYQHCSGEVFIDWPLIHPPLSNVVMCQGQSNKQCSAGNTLLQQVNVIGNHLQYFVTEGVCGI
notes: mature YLLip2, own prepro replaced by XPR2pre secretion signal, N-terminal 6xHis tag kept (HHHHHH-VYTST...); secreted from Y. lipolytica JMY1212 (plasmid pYL-H6-mYLLip2); IMAC purified; approx. 38 kDa on SDS-PAGE
- kcat: 157 ± 1 s⁻¹

From PMC4147282, “Aromatic Amino Acid Mutagenesis at the Substrate Binding Pocket of Yarrowia lipolytica Lipase Lip2 Affects Its Activity and Thermostability” (The Scientific World Journal, 2014)
